Assay [1] concerns the target human FcγRI (CD64) extracellular domain (human) (UniProt P12314). The assay can be described thus: SPR (Biacore), antibody captured on protein A, FcγR ECD as analyte, 25 °C. A general note: In SPR one partner is held on a chip, and binding of the other changes the refractive index at the surface.
In assay [2] the target is human FcγRIIIA_158F (CD16a) extracellular domain (human) (UniProt P08637). The assay can be described thus: SPR (Biacore), antibody captured on protein A, FcγR ECD as analyte, steady state, 25 °C.
Assay [3] addresses human FcγRIIA_131R (CD32a) extracellular domain (human) (UniProt P12318). The description is as above.
For assay [4], the target named is human FcγRIIA_131H (CD32a) extracellular domain (human) (UniProt P12318). The assay is described as above.
Assay [5] addresses human FcγRIIb (CD32b) extracellular domain (human) (UniProt P31994). Described as above.
Assay [6] has as its target human FcγRIIIA_158F (CD16a) extracellular domain (human) (UniProt P08637). The description is as above. The source holds these as a separate data set.
For assay [7], the target named is human FcγRIIA_131R (CD32a) extracellular domain (human) (UniProt P12318). The description is as above. The source holds these as a separate data set.
In assay [8] the target is human FcγRIIA_131H (CD32a) extracellular domain (human) (UniProt P12318). Described as above. The source holds these as a separate data set.
The target of assay [9] is human FcγRIIb (CD32b) extracellular domain (human) (UniProt P31994). Described as above. The source holds these as a separate data set.
The target of assay [10] is human FcγRI (CD64) extracellular domain (human) (UniProt P12314). In words: SPR (Biacore), antibody captured on protein A, FcγR ECD as analyte, 25 °C. The source holds these as a separate data set.
In assay [11] the target is human FcγRIIIA_158V (CD16a) extracellular domain (human) (UniProt P08637). In words: SPR (Biacore), antibody captured on protein A, FcγR ECD as analyte, steady state, 25 °C.

Read-outs that look alike come from different tables or passages of the source.

The Kd is a measure of binding affinity in units of concentration.

Sequence of human FcγRIIA_131R (CD32a) extracellular domain (human) (P12318 34-217 H167R): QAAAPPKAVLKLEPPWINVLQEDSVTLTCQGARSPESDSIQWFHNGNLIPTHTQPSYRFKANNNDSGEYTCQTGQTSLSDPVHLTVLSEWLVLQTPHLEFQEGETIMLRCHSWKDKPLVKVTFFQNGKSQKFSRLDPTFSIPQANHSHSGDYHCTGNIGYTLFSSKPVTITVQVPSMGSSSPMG
Sequence of human FcγRIIb (CD32b) extracellular domain (human) (P31994 43-217): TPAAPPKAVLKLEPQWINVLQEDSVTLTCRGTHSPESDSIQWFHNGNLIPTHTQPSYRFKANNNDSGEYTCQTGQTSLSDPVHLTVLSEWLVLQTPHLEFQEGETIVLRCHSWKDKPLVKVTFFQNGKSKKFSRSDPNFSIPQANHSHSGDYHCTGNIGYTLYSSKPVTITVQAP
Sequence of human FcγRIIA_131H (CD32a) extracellular domain (human) (P12318 34-217): as the sequence (P12318 34-217 H167R) above, with R134H counted along it
Sequence of human FcγRI (CD64) extracellular domain (human) (P12314 16-292): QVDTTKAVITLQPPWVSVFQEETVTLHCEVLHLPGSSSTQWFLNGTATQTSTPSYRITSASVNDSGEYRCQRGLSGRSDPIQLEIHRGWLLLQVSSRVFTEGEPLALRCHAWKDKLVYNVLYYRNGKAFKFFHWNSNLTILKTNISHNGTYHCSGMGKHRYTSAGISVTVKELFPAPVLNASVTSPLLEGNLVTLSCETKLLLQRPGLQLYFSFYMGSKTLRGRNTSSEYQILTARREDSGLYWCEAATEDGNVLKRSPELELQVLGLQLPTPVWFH
Sequence of human FcγRIIIA_158F (CD16a) extracellular domain (human) (P08637 17-208): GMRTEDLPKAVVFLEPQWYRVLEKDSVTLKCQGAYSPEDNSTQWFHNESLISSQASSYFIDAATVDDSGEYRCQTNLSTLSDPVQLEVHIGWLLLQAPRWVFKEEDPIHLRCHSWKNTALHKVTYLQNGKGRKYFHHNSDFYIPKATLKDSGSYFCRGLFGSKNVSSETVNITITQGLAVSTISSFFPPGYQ
Sequence of human FcγRIIIA_158V (CD16a) extracellular domain (human) (P08637 17-208 F176V): as the sequence (P08637 17-208) above, with F160V counted along it

For Hu IgG1 control (antibody), the dissociation constant Kd in [1] was 0.0559 nM; in assay [2] it was 1290 nM; in assay [3], 740 nM; in assay [4], 680 nM; in assay [5], 3110 nM; in assay [6], 910 nM. Besides, the Kd in assay [7] worked out at 760 nM; in assay [8] it was 690 nM; in assay [9] it was 3750 nM; in [10], 0.0521 nM.

Take Hu IgG4 SP control (antibody): the Kd in assay [11] is 7350 nM; in assay [3], 2310 nM; in assay [4] it was 5310 nM; in [5], 2780 nM; in [10] it was 0.419 nM.

Source of the values: patent publication US20240100176A1, “HUMAN INTERLEUKIN-4 RECEPTOR ALPHA ANTIBODY GLUCOCORTICOID CONJUGATES” (Eli Lilly and Company, priority 2022, published 2024).
